Residue numbers refer to the chain shown, from its start.
T1: 6xHis-WRKY40 (Arabidopsis thaliana, UniProt Q9SAH7 1-302)
T1 sequence: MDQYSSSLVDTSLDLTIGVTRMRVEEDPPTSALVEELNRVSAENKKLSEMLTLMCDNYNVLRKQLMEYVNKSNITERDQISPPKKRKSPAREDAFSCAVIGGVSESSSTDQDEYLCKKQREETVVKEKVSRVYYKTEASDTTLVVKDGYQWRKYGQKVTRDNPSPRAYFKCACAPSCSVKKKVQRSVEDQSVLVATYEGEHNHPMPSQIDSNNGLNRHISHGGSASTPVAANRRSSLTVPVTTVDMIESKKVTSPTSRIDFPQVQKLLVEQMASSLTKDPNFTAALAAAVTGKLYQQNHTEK

B1: ProCRK5-1 (dsDNA)
DNA 1: TTGATGTTACTCGTCTAGTTGACCTTGACTTGCAAGATATTGTATTATTTTACAAAAACCAAAATTTGACTGGCTTGGCT
DNA 2: AGCCAAGCCAGTCAAATTTTGGTTTTTGTAAAATAATACAATATCTTGCAAGTCAAGGTCAACTAGACGAGTAACATCAA
B2: ProCRK5-1 mW1 (dsDNA)
DNA 1: B1 DNA 1 with G68A, C70A
DNA 2: B1 DNA 2 with G11T, C13T

How the values were obtained:
Experiment in all cases: EMSA; 25 mM Hepes pH 8.0, 40 mM KCl, 5 mM MgCl2, 1 mM DTT, 1 mM EDTA, 8% glycerol; 50 ng protein, 20 fmol probe; 30 min at 28 C; native PAGE
6xHis-WRKY40 = target: T1, 6xHis-WRKY40; conditions: protein: recombinant, tags: N-terminal Trx, HRV 3C site (pET48b), label: 5' biotin on each strand, blunt
6xHis-WRKY60 = 6xHis-WRKY60 (Arabidopsis thaliana, UniProt Q9SK33 1-271); conditions: protein: recombinant, tags: N-terminal Trx, HRV 3C site (pET48b), label: 5' biotin on each strand, blunt
6xHis-WRKY18 = 6xHis-WRKY18 (Arabidopsis thaliana, UniProt Q9C5T4 1-310); conditions: protein: recombinant, tags: N-terminal Trx, HRV 3C site (pET48b), chain copies: 2, label: 5' biotin on each strand, blunt
6xHis-WRKY18, sequence (Q9C5T4 whole entry): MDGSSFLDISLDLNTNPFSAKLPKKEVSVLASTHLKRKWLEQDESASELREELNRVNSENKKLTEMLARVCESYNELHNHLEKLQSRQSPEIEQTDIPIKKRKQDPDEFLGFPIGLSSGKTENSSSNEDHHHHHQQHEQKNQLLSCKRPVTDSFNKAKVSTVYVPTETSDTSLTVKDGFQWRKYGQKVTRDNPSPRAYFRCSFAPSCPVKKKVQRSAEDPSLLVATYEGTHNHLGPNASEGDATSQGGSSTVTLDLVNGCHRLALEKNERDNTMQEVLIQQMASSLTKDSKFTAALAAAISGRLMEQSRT

6xHis-WRKY60, sequence (Q9SK33 whole entry): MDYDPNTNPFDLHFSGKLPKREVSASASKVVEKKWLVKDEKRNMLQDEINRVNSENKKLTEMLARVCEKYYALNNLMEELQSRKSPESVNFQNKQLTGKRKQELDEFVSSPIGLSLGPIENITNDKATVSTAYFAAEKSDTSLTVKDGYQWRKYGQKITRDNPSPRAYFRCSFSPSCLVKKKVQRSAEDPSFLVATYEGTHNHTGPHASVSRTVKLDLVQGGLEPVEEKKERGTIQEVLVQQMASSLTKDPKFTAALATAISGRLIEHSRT

Binder | binding result (6xHis-WRKY40) | binding result (6xHis-WRKY60) | binding result (6xHis-WRKY18)
B1 | binds | no binding | binds
B2 | binds |  | binds

From article PMC5014153, “Overexpression of an Arabidopsis cysteine-rich receptor-like protein kinase, CRK5, enhances abscisic acid sensitivity and confers drought tolerance”
